Experimental data published in the supplement of paper PMC6757056.
± gives the standard deviation of the averaged measurements.

B1: library; a variant is named by its letters at N, in order (parent)
chain: GCUGUCACCGGUGUAUUACCCUAGUGGUCGACCGGUCUGAUGAGUCUNNNNNNAGACGAAACAGC

Experiments:
hypoxanthine [1] = variants of: B1; test: normalized RNA/DNA level with ligand (relative to sTRSVctl = 100) (log10 (% of sTRSVctl)); ligand: hypoxanthine (xanthine aptamer); higher = less ribozyme self-cleavage, higher mRNA level; settings: ligand concentration (+) RNA-Seq: 5 mM, HEK293T, reporter: mCherry (pCS4076), ligand present: yes
In short: (§1)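 Ribozyme switch library plasmids linked to reporters were introduced into HEK293T cells at 4 µg per 6-well well, with ligand, if any, added 1 h before. Total RNA was extracted with EDTA 72 h later, reverse-transcribed, amplified, barcoded and sequenced. RNA level was computed from RNA over DNA reads relative to a spiked-in non-cleaving sequence or the top sequences, then scaled and log-transformed. The top set was 25 sequences, values were ×100 and log10, and the cutoff was ≥100 DNA reads.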

hypoxanthine [2] = variants of: B1; test: normalized RNA/DNA level without ligand (relative to sTRSVctl = 100) (log10 (% of sTRSVctl)); ligand: hypoxanthine (xanthine aptamer); higher = less ribozyme self-cleavage, higher mRNA level; settings: HEK293T, reporter: mCherry (pCS4076), ligand present: no
In short: as §1

Variant | normalized RNA/DNA level with ligand (log10) (hypoxanthine [1]) | normalized RNA/DNA level without ligand (log10) (hypoxanthine [2])
GCUGUCACCGGUGUAUUACCCUAGUGGUCGACCGGUCUGAUGAGUCUACGUGCAGACGAAACAGC [ACGUGC] | 1.81 ± 0.023 | 1.515 ± 0.0062
GCUGUCACCGGUGUAUUACCCUAGUGGUCGACCGGUCUGAUGAGUCUUCGUGUAGACGAAACAGC [UCGUGU] | 1.82 ± 0.059 | 1.33 ± 0.041
GCUGUCACCGGUGUAUUACCCUAGUGGUCGACCGGUCUGAUGAGUCUGCGUCGAGACGAAACAGC [GCGUCG] | 1.89 ± 0.037 | 1.53 ± 0.041
GCUGUCACCGGUGUAUUACCCUAGUGGUCGACCGGUCUGAUGAGUCUGCGUCCAGACGAAACAGC [GCGUCC] | 1.93 ± 0.029 | 1.59 ± 0.039
GCUGUCACCGGUGUAUUACCCUAGUGGUCGACCGGUCUGAUGAGUCUGCGUCUAGACGAAACAGC [GCGUCU] | 1.98 ± 0.085 | 1.772 ± 0.0055
GCUGUCACCGGUGUAUUACCCUAGUGGUCGACCGGUCUGAUGAGUCUGCGUCAAGACGAAACAGC [GCGUCA] | 1.96 ± 0.023 | 1.68 ± 0.069
GCUGUCACCGGUGUAUUACCCUAGUGGUCGACCGGUCUGAUGAGUCUUCGUUGAGACGAAACAGC [UCGUUG] | 1.98 ± 0.095 | 1.785 ± 0.01
GCUGUCACCGGUGUAUUACCCUAGUGGUCGACCGGUCUGAUGAGUCUUCGUUAAGACGAAACAGC [UCGUUA] | 1.961 ± 0.0027 | 1.736 ± 0.0095
GCUGUCACCGGUGUAUUACCCUAGUGGUCGACCGGUCUGAUGAGUCUUCGUUUAGACGAAACAGC [UCGUUU] | 1.96 ± 0.042 | 1.8 ± 0.01
GCUGUCACCGGUGUAUUACCCUAGUGGUCGACCGGUCUGAUGAGUCUUCGUUCAGACGAAACAGC [UCGUUC] | 2 ± 0.031 | 1.95 ± 0.086
GCUGUCACCGGUGUAUUACCCUAGUGGUCGACCGGUCUGAUGAGUCUCCGUUGAGACGAAACAGC [CCGUUG] | 1.88 ± 0.045 | 1.589 ± 0.0096
GCUGUCACCGGUGUAUUACCCUAGUGGUCGACCGGUCUGAUGAGUCUCCGUUUAGACGAAACAGC [CCGUUU] | 1.95 ± 0.028 | 1.86 ± 0.069
GCUGUCACCGGUGUAUUACCCUAGUGGUCGACCGGUCUGAUGAGUCUCCGUUAAGACGAAACAGC [CCGUUA] | 1.94 ± 0.021 | 1.75 ± 0.094
GCUGUCACCGGUGUAUUACCCUAGUGGUCGACCGGUCUGAUGAGUCUCCGUUCAGACGAAACAGC [CCGUUC] | 1.96 ± 0.079 | 1.82 ± 0.099
GCUGUCACCGGUGUAUUACCCUAGUGGUCGACCGGUCUGAUGAGUCUUCGUCUAGACGAAACAGC [UCGUCU] | 1.93 ± 0.049 | 1.87 ± 0.062
GCUGUCACCGGUGUAUUACCCUAGUGGUCGACCGGUCUGAUGAGUCUUCGUCAAGACGAAACAGC [UCGUCA] | 1.986 ± 0.016 | 1.807 ± 0.0051
GCUGUCACCGGUGUAUUACCCUAGUGGUCGACCGGUCUGAUGAGUCUUCGUCGAGACGAAACAGC [UCGUCG] | 1.99 ± 0.042 | 1.85 ± 0.049
GCUGUCACCGGUGUAUUACCCUAGUGGUCGACCGGUCUGAUGAGUCUUCGUCCAGACGAAACAGC [UCGUCC] | 1.98 ± 0.026 | 1.95 ± 0.0024
GCUGUCACCGGUGUAUUACCCUAGUGGUCGACCGGUCUGAUGAGUCUUCGUAAAGACGAAACAGC [UCGUAA] | 1.87 ± 0.04 | 1.53 ± 0.066
GCUGUCACCGGUGUAUUACCCUAGUGGUCGACCGGUCUGAUGAGUCUUCGUAUAGACGAAACAGC [UCGUAU] | 1.92 ± 0.045 | 1.61 ± 0.024
GCUGUCACCGGUGUAUUACCCUAGUGGUCGACCGGUCUGAUGAGUCUUCGUACAGACGAAACAGC [UCGUAC] | 1.94 ± 0.055 | 1.77 ± 0.031

Variant | normalized RNA/DNA level with ligand (log10) (hypoxanthine [1]) | normalized RNA/DNA level without ligand (log10) (hypoxanthine [2])
GCUGUCACCGGUGUAUUACCCUAGUGGUCGACCGGUCUGAUGAGUCUACGUCAAGACGAAACAGC [ACGUCA] | 1.94 ± 0.038 | 1.64 ± 0.032
GCUGUCACCGGUGUAUUACCCUAGUGGUCGACCGGUCUGAUGAGUCUACGUCCAGACGAAACAGC [ACGUCC] | 1.957 ± 0.0037 | 1.847 ± 0.015
GCUGUCACCGGUGUAUUACCCUAGUGGUCGACCGGUCUGAUGAGUCUACGUCGAGACGAAACAGC [ACGUCG] | 1.88 ± 0.041 | 1.41 ± 0.11
GCUGUCACCGGUGUAUUACCCUAGUGGUCGACCGGUCUGAUGAGUCUACGUCUAGACGAAACAGC [ACGUCU] | 1.95 ± 0.042 | 1.65 ± 0.066
GCUGUCACCGGUGUAUUACCCUAGUGGUCGACCGGUCUGAUGAGUCUACGUUAAGACGAAACAGC [ACGUUA] | 1.867 ± 0.015 | 1.62 ± 0.095
GCUGUCACCGGUGUAUUACCCUAGUGGUCGACCGGUCUGAUGAGUCUACGUUUAGACGAAACAGC [ACGUUU] | 1.84 ± 0.022 | 1.53 ± 0.035
GCUGUCACCGGUGUAUUACCCUAGUGGUCGACCGGUCUGAUGAGUCUACGUUCAGACGAAACAGC [ACGUUC] | 1.94 ± 0.039 | 1.79 ± 0.024
GCUGUCACCGGUGUAUUACCCUAGUGGUCGACCGGUCUGAUGAGUCUGCGUGCAGACGAAACAGC [GCGUGC] | 1.949 ± 0.016 | 1.619 ± 0.006
GCUGUCACCGGUGUAUUACCCUAGUGGUCGACCGGUCUGAUGAGUCUGCGUUUAGACGAAACAGC [GCGUUU] | 1.965 ± 0.002 | 1.74 ± 0.11
GCUGUCACCGGUGUAUUACCCUAGUGGUCGACCGGUCUGAUGAGUCUGCGUUCAGACGAAACAGC [GCGUUC] | 1.93 ± 0.059 | 1.58 ± 0.11
GCUGUCACCGGUGUAUUACCCUAGUGGUCGACCGGUCUGAUGAGUCUGCGUAAAGACGAAACAGC [GCGUAA] | 1.83 ± 0.035 | 1.49 ± 0.054
GCUGUCACCGGUGUAUUACCCUAGUGGUCGACCGGUCUGAUGAGUCUCCGUACAGACGAAACAGC [CCGUAC] | 1.92 ± 0.047 | 1.66 ± 0.037
GCUGUCACCGGUGUAUUACCCUAGUGGUCGACCGGUCUGAUGAGUCUCCGUAGAGACGAAACAGC [CCGUAG] | 1.82 ± 0.024 | 1.35 ± 0.099
GCUGUCACCGGUGUAUUACCCUAGUGGUCGACCGGUCUGAUGAGUCUCCGUAUAGACGAAACAGC [CCGUAU] | 1.91 ± 0.033 | 1.749 ± 0.0044
GCUGUCACCGGUGUAUUACCCUAGUGGUCGACCGGUCUGAUGAGUCUCCGUCUAGACGAAACAGC [CCGUCU] | 1.97 ± 0.036 | 1.83 ± 0.063
GCUGUCACCGGUGUAUUACCCUAGUGGUCGACCGGUCUGAUGAGUCUCCGUCCAGACGAAACAGC [CCGUCC] | 1.98 ± 0.067 | 1.91 ± 0.057
GCUGUCACCGGUGUAUUACCCUAGUGGUCGACCGGUCUGAUGAGUCUCCGUCAAGACGAAACAGC [CCGUCA] | 1.909 ± 0.008 | 1.855 ± 0.0032
GCUGUCACCGGUGUAUUACCCUAGUGGUCGACCGGUCUGAUGAGUCUCCGUCGAGACGAAACAGC [CCGUCG] | 1.89 ± 0.061 | 1.689 ± 0.011
GCUGUCACCGGUGUAUUACCCUAGUGGUCGACCGGUCUGAUGAGUCUCCGUGCAGACGAAACAGC [CCGUGC] | 1.9 ± 0.057 | 1.54 ± 0.08
GCUGUCACCGGUGUAUUACCCUAGUGGUCGACCGGUCUGAUGAGUCUACGUACAGACGAAACAGC [ACGUAC] | 1.9 ± 0.041 | 1.55 ± 0.036
GCUGUCACCGGUGUAUUACCCUAGUGGUCGACCGGUCUGAUGAGUCUACGUAUAGACGAAACAGC [ACGUAU] | 1.86 ± 0.057 | 1.39 ± 0.053
